# In paper PMC6277545, “Structural Basis for the Limited Response to Oxidative and Thiol-Conjugating Agents by Triosephosphate Isomerase From the Photosynthetic Bacteria Synechocystis” (Frontiers in Molecular Biosciences, 2018):
# B1: Synechocystis sp. PCC 6803 triosephosphate isomerase (enzyme)
# chain: GPHMRKIIIAGNWKMHKTQAEAQAFLQGFKPLIEDAAESREVVLCVPFTDLSGMSQQLHGGRVRLGAQNVHWEASGAYTGEISAAMLTEIGIHYVVIGHSERRQYFGETDETANLRVLAAQKAGLIPILCVGESKAQRDAGETEQVIVDQVKKGLVNVDQSNLVIAYEPIWAIGTGDTCAATEANRVIGLIREQLTNSQVTIQYGGSVNANNVDEIMAQPEIDGALVGGASLEPQSFARIVNFQP
# notes: triosephosphate isomerase of Synechocystis sp; PCC 6803, GenBank BAK50928.1; Crystallised with the substrate analog 2-phosphoglycolate (2-PG); also called SyTPI; Synechocystis TPI; source: E. coli BL21 (DE3) Δtpi, purified (HisTrap, PreScission Protease, Superdex 75 gel filtration); not shown: His tag (from the HisTrap column and the modified pET19 vector), N-terminal, cleaved
# B2: Arabidopsis thaliana cytosolic triosephosphate isomerase (enzyme, UniProt P48491 1-254, looked up)
# chain: MARKFFVGGNWKCNGTAEEVKKIVNTLNEAQVPSQDVVEVVVSPPYVFLPLVKSTLRSDFFVAAQNCWVKKGGAFTGEVSAEMLVNLDIPWVILGHSERRAILNESSEFVGDKVAYALAQGLKVIACVGETLEEREAGSTMDVVAAQTKAIADRVTNWSNVVIAYEPVWAIGTGKVASPAQAQEVHDELRKWLAKNVSADVAATTRIIYGGSVNGGNCKELGGQADVDGFLVGGASLKPEFIDIIKAAEVKKSA
# notes: cytosolic triosephosphate isomerase of Arabidopsis thaliana; also called AtcTPI; cytosolic TPI isoform of A. thaliana
# Molecular target: the molecule itself
# Experiment: SEC; Superdex 75 10/300 column, compared with MW standards (conalbumin, ovalbumin, carbonic anhydrase, Ribonuclease A); apparent molecular mass of SyTPI 54 kDa
row,Protein,stoichiometry N
1,B1,2
2,B2,2
